Results published in patent publication US20160274120A1, “METHODS OF DETERMINING WHETHER THE WNT SIGNALING PATHWAY IS UPREGULATED IN A TUMOR” (ICAHN SCHOOL OF MEDICINE AT MOUNT SINAI, priority 2009, published 2016).

B1: DKK1: Dickkopf-1, secreted Wnt antagonist binding co-receptor LRP6; Flag-tagged, expressed from lentiviral vector (protein, UniProt O94907 32-266, looked up)
Dickkopf-related protein 1: TLNSVLNSNAIKNLPPPLGGAAGHPGSAVSAAPGILYPGGNKYQTIDNYQPYPCAEDEECGTDEYCASPTRGGDAGVQICLACRKRRKRCMRHAMCCPGNYCKNGICVSSDQNHFRGEIEETITESFGNDHSTLDGYSRRTTLSSKMYHTKGQEGSVCLRSSDCASGLCCARHFWSKICKPVLKEGQVCTKHRRKGSHGLEIFQRCYCGEGLSCRIQKDHHQASNSSRLHTCQRH
modifications: Flag tag
notes: Flag-tagged, expressed from lentiviral vector
B2: FRP1: secreted Frizzled Related Protein, Wnt antagonist inhibiting Wnt ligand-receptor interaction; HA-tagged, expressed from lentiviral vector (protein, UniProt Q8N474 32-314, looked up)
Secreted frizzled-related …: SEYDYVSFQSDIGPYQSGRFYTKPPQCVDIPADLRLCHNVGYKKMVLPNLLEHETMAEVKQQASSWVPLLNKNCHAGTQVFLCSLFAPVCLDRPIYPCRWLCEAVRDSCEPVMQFFGFYWPEMLKCDKFPEGDVCIAMTPPNATEASKPQGTTVCPPCDNELKSEAIIEHLCASEFALRMKIKEVKKENGDKKIVPKKKKPLKLGPIKKKDLKKLVLYLKNGADCPCHQLDNLSHHFLIMGRKVKSQYLLTAIHKWDKKNKEFKNFMKKMKNHECPTFQSVFK
modifications: HA tag
notes: HA-tagged, expressed from lentiviral vector

Experiments:
human sarcoma cells = assay: Proliferation of sarcoma cells in vitro (1000 cells/60 mm, 10 days, crystal violet); assay type: cell-based; conditions: A2984, HT1080 and HCT116 cells, lentiviral shRNA
Description: FIGS. 16A-16F. Downregulation of CDC25A, a novel Wnt target gene, inhibits proliferation of human sarcoma cells in vitro. A. CDC25A is a direct target of Wnt signaling in sarcoma cells. Chromatin immunoprecipitation was conducted on DNA extracted from U-2 OS, a Wnt autocrine sarcoma cell line. Monoclonal antibody against β-catenin was used in immunoprecipitation. Axin 2, a known Wnt target gene, was used as a positive control. […] C. Downregulation of Wnt signaling (assayed by TCF4 reporter activity) in sarcoma cells expressing dnTCF4. Cells stably expressing TOP luciferase and a normalizer, renilla luciferase, were used in this assay. D. dnTCF expression induces growth arrest in sarcoma cells. Indicated human sarcoma cells were stably infected with dnTCF or an empty vector control and selected in puromycin for 3 days. Cells were plated at 1000 cells/60 mm
density and cultured for 10 days. […] E Knockdown of CDC25A or c-myc induces growth arrest in sarcoma cells. HCTZ 16, a human colon cancer cell line was used for comparison. Indicated cells were stably infected with either empty vector control or shRNA specific for CDC25A or c-myc and selected in puromycin and plated at 1000 cells/60 mm plate and cultured for 10 days. Cells were fixed and stained with crystal violet. F. Western blotting to show specific downregulation of CDC25A or c-myc after shRNA expression in indicated cells. […]

NSCLC cells = assay: Cell growth analysis assay (crystal violet staining) of NSCLC cells; assay type: cell-based, human; conditions: stable DKK1 expression
Source text: Transduced and marker selected cells were trypsinized, counted and 1-2×10^4 cells plated into 60 mm tissue culture dishes. At 2-3 weeks, cells were washed with PBS, fixed in 10% methanol/acetic acid solution and stained with 1% crystal violet.

[1] = system: autocrine Wnt NSCLC cells; assay: Sensitization of NSCLC cells to cisplatin (colony growth, annexin/PI FACS); assay type: cell-based, human; conditions: H23 (autocrine Wnt) vs A549 cells, lentiviral DKK1, cisplatin
Description: FIGS. 13A and 13E. […] (A and B) Effects of cisplatin on growth of H23 (A) and A549 (B) cells infected with vector (VEC) or DKK1 expressing lentiviruses. 5×10^3 H23 and A549 cells expressing vector or DKK1 were plated in 60 mm plates. Cells were treated for 4 hr with 5 or 20 μM cisplatin or saline as control and colonies were visualized 2 weeks later by crystal violet staining. (C and D) Effects of cisplatin on apoptosis of H23 (C) and A549 (D) cells infected with vector (VEC) or DKK1 expressing lentiviruses and treated for 3 days with increasing concentrations of cisplatin. Adherent and floating cells were collected and processed for FACS analysis using annexin/PI. The percentage of annexin positive cells in vector or DKK1 infected cells is represented in the line graph. Results are the mean±SD of 3 independent experiments. Statistical two-way analysis of variance (ANOVA) tests with Bonferroni multiple testing corrections were performed. *−p<0.05, **−p<0.01, ***−p<0.001. […] Cell lysates were collected every 24 hr and analyzed by immunoblot. […]
For DNA content analysis, cells were trypsinized, combined with floating cells, washed with PBS, stained with propidium iodide (PI), using the CycleTEST Plus DNA reagent kit (Becton Dickinson) following the manufacturer instructions, and subjected to FACS analysis. […] Results were analyzed using Cell Quest 3.2 software (Becton Dickinson).

TCF reporter activity = assay: TCF mediated luciferase reporter activity (TOP/FOP) in NSCLC cell lines; assay type: cell-based, human; conditions: around 30% of Wnt activated NSCLC lines (summary)
Description: 24 hours before infection, stable reporter cell lines expressing TOP or FOP TCF luciferase and renilla luciferase were plated in 6 well plates at I×IO^5 cells/well. The following day cells were infected with lentiviruses expressing different Wnt antagonists, selected with 2 μg/ml puromycin for 3 days, lysed and processed for luciferase reporter assay using the dual luciferase reporter Kit (Promega) according to the manufacturer's protocol. Luciferase reporter activity was calculated by dividing the ratio TOP/RL by the FOP/RL ratio. Results were normalized to the results with vector transduced cultures.
(§1) analysis, cells were co-infected with TOP or FOP firefly luciferase mixed with a lentivirus expressing renilla luciferase (RL) used to normalize for infection efficiency (1:20-1:40 ratio). To assess the effects of FRP1 and DKK1 on TCF luciferase reporter activity, stable reporter cell lines were plated in 6 well plates and infected with vector, FRP1 or DKK1 lentiviruses. Cells were selected for 3 days with puromycin, lysed and processed for dual luciferase analysis. To generate stable inducible lines, cells were infected consecutively with tetracycline trans-activator (tTa) expressing lentivirus, selected for two weeks with 5-10 μg/ml blasticidin, followed by a second infection with lentiviruses expressing inducible FRP1, DKK1, DNTCF-4 or DNTCF-4-mOrange or empty vector, and selected for 4-7 days in 2 μg/ml puromycin in the presence of 10 ng/ml doxycycline. For induction of the antagonists, cells were trypsinized, washed with PBS and plated into 10 cm plates in the presence or absence of doxycyclin. Control cells expressing tTa or empty vector were processed in the same way. All infections were performed for 16 hr in the presence of 8 μg/ml polybrene.

axin2 = assay: Real time PCR quantification of axin2 mRNA expression in NSCLC cells; assay type: cell-based, human; conditions: around 30% of Wnt activated NSCLC lines (summary)
Description: Total RNA was isolated from cells using the Trizol Reagent (Invitrogen) according to the manufacturer's protocol. Semi-quantitative RT-PCR screen was performed using One Step RT-PCR Kit (Invitrogen) according to the manufacturer's protocol. PCR products were separated on 1% agarose gel. 5 μg total RNA was reverse transcribed using Superscript II reverse transcriptase (Invitrogen). Quantitative PCR was performed using SybrGreen 2× master mix (Roche) on a MJ Opticon or Stratagene MxPro3005. 50 ng cDNA were amplified as follows: 94° C. for 15 min, 94° C. for 15 s, 60° C. for 30 s, 72° C. for 1 min. Steps 2 through 4 were repeated for 40 cycles. Each reaction was performed in duplicate, and results of 3 independent experiments were used for statistical analysis. Relative mRNA expression levels were quantified using the ΔΔC(t) method (Pfaffl, 2001). Results were normalized to those for TATA Binding Protein (TBP). Primer sequences can be found in Tables 4 and 5.

uncomplexed β-catenin = assay: Uncomplexed β-catenin, GST-E-cadherin pull-down and immunoblot in NSCLC cells expressing Wnt antagonists; assay type: cell-based, human; conditions: for uncomplexed β-catenin level: H1819 NSCLC cells, stable (constitutive) expression
Description: FIGS. 2A-2E. Effects of FRP1 and DKK1 inhibition on Wnt/β-catenin signaling and growth of human NSCLC cells. (A) Effects of constitutive expression of FRP1 and DKK1 on uncomplexed β-catenin in H1819 NSCLC cell line. FRP1 and DKK1 expression was determined by immunoblot analysis as described in Materials and methods. (B) Analysis of NSCLC lines for uncomplexed β-catenin using regulatable expression of HA-tagged FRP1 (upper panel) and Flag-tagged DKK1 (lower panel). NSCLC cells expressing Tet regulatable FRP1-HA or DKK1-Flag were generated as described in supplemental Materials and methods. Expression of FRP1-HA or DKK1-Flag was induced by removal of dox from the culture medium. Cells expressing tetracycline Trans-activator (tTa) were used as control. Analysis of uncomplexed β-catenin was performed as described in Materials and methods using 1 mg total cell lysates, except for A427 cells, where 0.1 mg cell lysate was used. FRP1 and DKK1 expression was determined by immunoblot analysis as described in Materials and methods. (C) FRP1 and DKK1 mediated inhibition of TCF luciferase reporter activity in NSCLC cell lines. Luciferase reporter activity was calculated by dividing the TOP/RL ratio by the FOP/RL ratio. Results were normalized to the results with vector transduced cultures. The values represent the mean±SD from two independent experiments. (D) Real time PCR quantification of FRP1 and DKK1 effects on axin2 mRNA expression. H23, Al 146 and H1819 cells were infected with vector (VEC), FRP1-HA or DKK1-Flag lentiviruses. qRT-PCR was performed as described in supplemental Materials and methods. Relative mRNA expression levels were quantified using the ΔΔC(t) method (Pfaffl, 2001). (E) Effects of DKK1 on cell growth. A549, H23, H1819 and A427 cells were infected with lentiviruses expressing vector (VEC) or DKK1-Flag and 2×10^4 cells were plated into 60 mm tissue culture dishes. Cultures were visualized using crystal violet staining 2-3 weeks after plating. Expression of flagged tagged DKK1 was assessed by immunoblot analysis as described in Materials and methods.
GST-E-cadherin binding and immunoblot analysis was performed as previously described (Bafico et al, 1998), with the exception that for human tumor samples it was done with freshly frozen or stored tissue under cold, mild-detergent conditions. Specifically, the following protocol to assay for uncomplexed (active) β-catenin in human tumor samples was used:
as §1

[2] = H23 and A1146 tumor lines, inducible system, low expression in the presence of dox
[3] = around 30% of Wnt activated NSCLC lines (summary)

Row | Molecule | proliferation (human sarcoma cells) | cell growth / proliferation vs vector control (NSCLC cells; A549 (no Wnt activation) and A427 (β-catenin mutant) cells) | cell growth / proliferation vs vector control (NSCLC cells; H23 and H1819 tumor cells) | sensitization to cisplatin treatment [1] | TCF reporter activity (TCF reporter activity) | expression of the Wnt target gene axin2 (axin2) | uncomplexed β-catenin levels (uncomplexed β-catenin; H23 and A1146 cells, full induction (dox removed)) | uncomplexed β-catenin levels (uncomplexed β-catenin; [2]) | uncomplexed β-catenin level (uncomplexed β-catenin) | uncomplexed β-catenin levels (uncomplexed β-catenin; H2347, H358 or A427 cells) | uncomplexed β-catenin levels (uncomplexed β-catenin; [3])
1 | CDC25A shRNA: shRNA specific for CDC25A, 5′CCAGGGAATTTCATTCCTC3′ (SEQ ID NO: 62) (CCAGGGAAATTTCATTCCTC; chemistry not fully specified) | inhibited proliferation to varying degrees |  |  |  |  |  |  |  |  |  | 
2 | B1 |  | not associated with any detectable growth inhibition | antiproliferative effects | specifically sensitizes | dramatic decrease | dramatic decrease | further reduced | decrease | marked decrease | no effect | dramatic decrease
3 | B2 |  |  |  |  | dramatic decrease | dramatic decrease |  | significant reduction | marked decrease | no effect | dramatic decrease
